Measured values: the supplement of paper PMC7125110
± gives the standard error. For part of these data: Fewer inactive variants are shown than the library holds.

B1: glmS ribozyme (parent)
chain: AUAAAAGCGCCAGAACUACAGAAAUGUAGUUGACGAGGAGGAGGUUUAUCGAAUUUUCGGCGGAUGCCUCCAAA

Experiments:
Settings in all cases: with glucosamine-6-phosphate
glucosamine-6-phosphate [1] = variants of: B1; experiment: kcat; higher = faster cleavage; RNA array
How it was run: (§1)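 Tiles of sequenced MiSeq chips were imaged over ~14 h at 37 °C. On them, barcoded ribozyme variants had been transcribed in situ by E. coli RNA polymerase and were tracked via a hybridised Cy3 probe while glucosamine-6-phosphate (40 μM to 10 mM) in HEPES/KCl/Mg(OAc)2 buffer flowed in. Per-tile medians, normalised to baseline and to non-cleaving reference variants, were fit to one- or two-exponential decays for kobs, and weighted Michaelis–Menten fits gave kcat and KM.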

glucosamine-6-phosphate [2] = variants of: B1; experiment: KM; higher = weaker cofactor use; RNA array
How it was run: as §1

glucosamine-6-phosphate [3] = variants of: B1; experiment: self-cleavage kobs at 640 uM GlcN6P; higher = faster cleavage; RNA array
How it was run: as §1

glucosamine-6-phosphate [4] = variants of: B1; experiment: self-cleavage kobs at 2500 uM GlcN6P; higher = faster cleavage; RNA array
How it was run: as §1

glucosamine-6-phosphate [5] = variants of: B1; experiment: self-cleavage kobs at 10000 uM GlcN6P; higher = faster cleavage; RNA array
How it was run: as §1

glucosamine-6-phosphate [6] = variants of: B1; experiment: self-cleavage kobs at 40 uM GlcN6P; higher = faster cleavage; RNA array
How it was run: as §1

glucosamine-6-phosphate [7] = variants of: B1; experiment: self-cleavage kobs at 160 uM GlcN6P; higher = faster cleavage; RNA array
How it was run: as §1

| Variant | kcat (glucosamine-6-phosphate [1]) [s⁻¹] | KM (glucosamine-6-phosphate [2]) [µM] | self-cleavage kobs at 640 uM GlcN6P (glucosamine-6-phosphate [3]) [s⁻¹] | self-cleavage kobs at 2500 uM GlcN6P (glucosamine-6-phosphate [4]) [s⁻¹] | self-cleavage kobs at 10000 uM GlcN6P (glucosamine-6-phosphate [5]) [s⁻¹] | self-cleavage kobs at 40 uM GlcN6P (glucosamine-6-phosphate [6]) [s⁻¹] | self-cleavage kobs at 160 uM GlcN6P (glucosamine-6-phosphate [7]) [s⁻¹] |
| --- | --- | --- | --- | --- | --- | --- | --- |
| U31C C58A | 0.000146 ± 6.8e-06 | 1390 ± 210 | 5.08e-05 ± 1.5e-05 | 8.99e-05 ± 1.5e-05 | 0.00013 ± 1.5e-05 |  |  |
| U47C A48C |  |  |  |  |  | < 1e-05 | < 1e-05 |
| A14U | 0.0182 ± 0.0048 | 2730 ± 850 | 0.00328 ± 0.00015 | 0.00942 ± 0.00041 | 0.0143 ± 0.00047 | 0.000298 ± 5.5e-06 | 0.00073 ± 3e-05 |
| U57C C71G | 1.18e-05 ± 1.2e-06 |  |  |  |  | < 1e-05 |  |
| G29U C70A | 6.65e-05 ± 8.1e-06 |  | 4.74e-05 ± 7.5e-06 | 6.79e-05 ± 7.2e-06 | 5.54e-05 ± 7.6e-06 |  |  |
| G40A G59A |  | 1080 ± 65 |  |  |  |  |  |
| A33U A53U | 4.9e-05 ± 3.4e-06 | 2490 ± 550 |  | 2.34e-05 ± 1e-05 | 3.95e-05 ± 9.4e-06 | < 1e-05 | < 1e-05 |
| U54A C61A |  | 864 ± 400 |  |  |  |  |  |
| A12G A36C G51U |  |  |  |  | < 1e-05 | < 1e-05 |  |
| A33G G38U |  | 47.2 ± 22 |  |  |  |  |  |
| U54A C61A G66U |  |  |  |  |  | < 1e-05 |  |
| G7A U54C | 1.94e-05 ± 3.6e-06 |  |  |  |  |  |  |
| C16A A39C U65G | 5.91e-05 ± 2.8e-05 |  |  | 8.69e-05 ± 3e-05 |  |  |  |
| C16U U54G | 0.0201 ± 0.0063 | 1720 ± 730 | 0.00575 ± 0.00092 | 0.0115 ± 0.0019 | 0.0185 ± 0.0042 | 0.000682 ± 0.00011 | 0.00138 ± 0.00023 |
| A15U A52C | < 1e-05 | 537 ± 110 | < 1e-05 |  |  | < 1e-05 | < 1e-05 |
| U55A C58G | 0.00041 ± 0.00019 |  | 2.55e-05 ± 1.3e-05 | 4.69e-05 ± 1.5e-05 | 0.000153 ± 2.5e-05 |  |  |
| C8G A33C C67G |  |  | < 1e-05 |  |  | < 1e-05 |  |
| A14C U69C | 0.00147 ± 0.00041 | 2100 ± 820 | 0.000344 ± 6.1e-05 | 0.000686 ± 0.00015 | 0.00131 ± 0.0002 | 5.59e-05 ± 1.2e-05 | 9.64e-05 ± 1.4e-05 |
| A42C G62C |  |  |  |  | < 1e-05 | < 1e-05 | < 1e-05 |
| U47G U57C | 0.000206 ± 2.4e-05 | 6430 ± 1500 |  | 5.65e-05 ± 1.2e-05 | 0.000126 ± 1.3e-05 |  |  |

| Variant | kcat (glucosamine-6-phosphate [1]) [s⁻¹] | KM (glucosamine-6-phosphate [2]) [µM] | self-cleavage kobs at 640 uM GlcN6P (glucosamine-6-phosphate [3]) [s⁻¹] | self-cleavage kobs at 2500 uM GlcN6P (glucosamine-6-phosphate [4]) [s⁻¹] | self-cleavage kobs at 10000 uM GlcN6P (glucosamine-6-phosphate [5]) [s⁻¹] | self-cleavage kobs at 40 uM GlcN6P (glucosamine-6-phosphate [6]) [s⁻¹] | self-cleavage kobs at 160 uM GlcN6P (glucosamine-6-phosphate [7]) [s⁻¹] |
| --- | --- | --- | --- | --- | --- | --- | --- |
| U47G U57A | 0.000141 ± 1.3e-05 | 1670 ± 420 | 4.42e-05 ± 1.5e-05 | 7.57e-05 ± 2.1e-05 | 0.000125 ± 2.4e-05 |  |  |
| G32U G66U | 9.79e-05 ± 9.9e-06 | 7290 ± 1700 |  |  | 5.66e-05 ± 1.4e-05 |  |  |
| A52U C70G | 7.01e-05 ± 1.1e-05 |  | 5.38e-05 ± 1.1e-05 | 8.15e-05 ± 8.6e-06 | 5.93e-05 ± 7.6e-06 |  |  |
| U31G A33G |  |  | < 1e-05 |  | < 1e-05 | < 1e-05 |  |
| U57G C67A | 2.87e-05 ± 6.3e-06 |  |  |  | 2.45e-05 ± 1.2e-05 |  |  |
| G13A C58G | 0.000377 ± 8.6e-05 | 7150 ± 2500 | 2.8e-05 ± 7.8e-06 | 0.000101 ± 1.7e-05 | 0.000217 ± 3.4e-05 |  |  |
| U46A C71G | 0.00042 ± 3.7e-05 | 2020 ± 370 | 9.39e-05 ± 1.2e-05 | 0.00025 ± 3.5e-05 | 0.000346 ± 3.2e-05 |  | 4.33e-05 ± 1.2e-05 |
| A6U A36C C50U A64G |  |  |  |  |  | < 1e-05 |  |
| U57A C67A | 0.000119 ± 3.3e-05 |  | 4.64e-05 ± 1.4e-05 | 4.66e-05 ± 7.6e-06 | 9.37e-05 ± 1.1e-05 |  |  |
| A33U U45G G51A |  |  |  |  | < 1e-05 | < 1e-05 |  |
| A39U A52C |  | 2300 ± 420 |  |  |  |  |  |
| G7C C68A |  |  |  | < 1e-05 | < 1e-05 | < 1e-05 | < 1e-05 |
| C61G C68U | < 1e-05 |  |  |  |  |  |  |
| G41A C68U |  |  |  | 1.85e-05 ± 7.6e-06 | 2.09e-05 ± 8.7e-06 | < 1e-05 | < 1e-05 |
| G13A U30C | 0.000676 ± 0.00014 | 2010 ± 830 | 0.000158 ± 3.2e-05 | 0.000511 ± 9.2e-05 | 0.00051 ± 9.1e-05 |  |  |
| G13A U30A | 0.000292 ± 4.6e-05 | 3630 ± 960 | 3.94e-05 ± 1.3e-05 | 0.000128 ± 2.3e-05 | 0.000202 ± 5.4e-05 |  | < 1e-05 |
| A14G U31C |  | 891 ± 450 | 0.00963 ± 0.0011 | 0.0154 ± 0.0043 | 0.05 ± 0.013 | 0.0012 ± 0.00019 | 0.00337 ± 0.00062 |
| G32C A42U | < 1e-05 |  |  | < 1e-05 |  |  | < 1e-05 |
| U46G U69G | 7.96e-05 ± 5.9e-06 |  | 0.000111 ± 1.6e-05 | 7.44e-05 ± 1.1e-05 | 7.71e-05 ± 5.3e-06 | 5.51e-05 ± 9.4e-06 | 7.35e-05 ± 1.7e-05 |
